# Assay results: patent US20050255104A1
# B1: chimeric mouse/human IgG1 anti-platelet mAb (7E3) (antibody, INN chains, looked up, V domains shown)
# VH: EVQLQQSGTVLARPGASVKMSCEASGYTFTNYWMHWVKQRPGQGLEWIGAIYPGNSDTSYIQKFKGKAKLTAVTSTTSVYMELSSLTNEDSAVYYCTLYDGYYVFAYWGQGTLVTVSA
# VL: EIVLTQSPVTLSVTPGDSVSLSCRASRDISNNLHWFQQTSHESPRLLIKYASQSMSGIPSRFSGSGSGTDFTLSINSVETEDFGMYFCQQTNSWPYTFGGGTKLEIK
# modifications: full IgG1
# Biological target: human tumor necrosis factor-α (TNFα) (human) (UniProt P01375)
# Experiment: cell-based or functional assay
# Sequence of human tumor necrosis factor-α (TNFα) (human) (P01375 77-233 limits assumed): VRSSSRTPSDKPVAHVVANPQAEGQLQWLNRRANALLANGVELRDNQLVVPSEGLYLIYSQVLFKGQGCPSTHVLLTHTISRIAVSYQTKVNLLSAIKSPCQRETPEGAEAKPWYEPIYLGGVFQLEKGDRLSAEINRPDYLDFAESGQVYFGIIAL
binder,measurement,value
B1,"IL-6 secreted by FS-4 fibroblasts, 0.3 ng/ml rhTNF with 4 µg/ml antibody",1.6 ng/mL
same,"IL-6 secreted by FS-4 fibroblasts, 1.5 ng/ml rhTNF with 4 µg/ml antibody",1.96 ng/mL
same,"IL-6 secreted by FS-4 fibroblasts, 7.5 ng/ml rhTNF with 4 µg/ml antibody",2.16 ng/mL
